The target in the experiment is FcγRIIIa on NK cells (human) (UniProt P08637). The experiment is described as follows: cell-based or functional assay.

ADCC EC50 (LDH release, Raji target cells, human PBMC effector cells) data for one substance are collected here from patent publication US9663581.

UniProt P08637, sequence (P08637 17-254): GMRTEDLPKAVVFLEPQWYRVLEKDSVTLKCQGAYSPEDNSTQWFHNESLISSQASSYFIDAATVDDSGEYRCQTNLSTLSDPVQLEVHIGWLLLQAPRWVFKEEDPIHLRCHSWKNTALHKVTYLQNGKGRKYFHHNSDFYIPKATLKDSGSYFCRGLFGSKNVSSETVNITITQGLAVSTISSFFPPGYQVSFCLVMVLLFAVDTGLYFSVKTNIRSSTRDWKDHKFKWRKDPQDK

As for wild type rituximab (antibody), the ADCC EC50 (LDH release, Raji target cells, human PBMC effector cells) came out at 0.046 µg/mL.
